From paper PMC8782417, “A PDK-1 allosteric agonist neutralizes insulin signaling derangements and beta-amyloid toxicity in neuronal cells and in vitro” (PLoS ONE, 2022)

Biological target: T1, FAM-labeled Aβ42 peptide (carboxy-fluorescein conjugated to the N' terminus), prepared as ADDL oligomers (UniProt P05067 672-713, carboxy-fluorescein (FAM) on the N-terminus; the labelled peptide was mixed with wild type Aβ42 in a 1:2 molar ratio)
T1 construct: Aβ42, the 42-residue β-amyloid peptide cut from the amyloid precursor protein (APP); Mixed with unlabelled wild type Aβ42 (1:2 molar ratio), then incubated at 4 °C for 24 hrs to oligomerise (ADDLs); also called FAM-Aβ42; FAM tagged-Aβ; source: bought: Anaspec (FAM-Aβ42); Aβ peptides from BioSource
Test: fluorescence polarisation; in solution; FAM-Aβ42 probe (ADDL oligomers) fixed at 200 nM, recombinant PDK-1 or Akt-1 titrated 0-10 μM (Akt 0 to 12.5 μM) until saturation; 30 min, 25°C; 100 mM NaCl, 20 mM phosphate pH7.4, 2 mM DTT, 0.1% BSA, 2% DMSO; 2 experiments each
Conditions: both partners purified

T1 sequence (P05067 672-713): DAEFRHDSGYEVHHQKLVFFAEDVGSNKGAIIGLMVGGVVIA

- IC50: ~1000 nM
B1: Recombinant human PDK-1 (active) (enzyme, UniProt O15530 1-556, looked up)
chain: MARTTSQLYDAVPIQSSVVLCSCPSPSMVRTQTESSTPPGIPGGSRQGPAMDGTAAEPRPGAGSLQHAQPPPQPRKKRPEDFKFGKILGEGSFSTVVLARELATSREYAIKILEKRHIIKENKVPYVTRERDVMSRLDHPFFVKLYFTFQDDEKLYFGLSYAKNGELLKYIRKIGSFDETCTRFYTAEIVSALEYLHGKGIIHRDLKPENILLNEDMHIQITDFGTAKVLSPESKQARANSFVGTAQYVSPELLTEKSACKSSDLWALGCIIYQLVAGLPPFRAGNEYLIFQKIIKLEYDFPEKFFPKARDLVEKLLVLDATKRLGCEEMEGYGPLKAHPFFESVTWENLHQQTPPKLTAYLPAMSEDDEDCYGNYDNLLSQFGCMQVSSSSSSHSLSASDTGLPQRSGSNIEQYIHDLDSNSFELDLQFSEDEKRLLLEKQAGGNPWHQFVENNLILKMGPVDKRKGLFARRRQLLLTEGPHLYYVDPVNKVLKGEIPWSQELRPEAKNFKTFFVHTPNRTYYLMDPSGNAHKWCRKIQEVWRQRYQSHPDAAVQ
notes: phosphoinositide-dependent protein kinase-1 (PDK-1), human, recombinant, active; printed size 59 kDa; Commercial protein; also called phosphoinositide-dependent protein kinase-1; source: bought: Amsbio
